Reference: paper PMC5874916

Key:
[1] = biological target: HIV-1 reverse transcriptase (Human immunodeficiency virus 1) (UniProt O93215); details: cited from earlier work
HaloTag-eEF1A [2] = biological target: HaloTag-eEF1A (UniProt P68104); experiment: FRET or BRET; NanoBRET in HEK293T cells cotransfected with 5 ng RTp66-NanoLuc (donor) and 500 ng HaloTag-eEF1A (acceptor), HaloTag NanoBRET 618 Ligand; BRET ratio of the RSV P-NanoLuc control subtracted, normalized to WT RT
[3] = biological target: purified recombinant eEF1A1 (OriGene), biotinylated (UniProt P68104); experiment: BLI; details: biotinylated eEF1A immobilized on a streptavidin-coated biosensor, 90 nM RT heterodimer, E300R in both RTp51 and RTp66 subunits
[4] = biological target: purified recombinant eEF1A1 (OriGene), biotinylated (UniProt P68104); experiment: BLI; Octet Red; biotinylated eEF1A1 immobilised on streptavidin-coated biosensors, 90 nM RTp51/p66 heterodimer; kinetic buffer 1 mM phosphate, 15 mM NaCl, 0.002% Tween 20, 0.1 mg/ml gelatin
HaloTag-eEF1A [5] = biological target: HaloTag-eEF1A (UniProt P68104); experiment: NanoBRET; details: HEK293T cells cotransfected; n = 3; parent: est. 100; read off a plot

purified recombinant eEF1A1 (OriGene), biotinylated, sequence (P68104 whole entry): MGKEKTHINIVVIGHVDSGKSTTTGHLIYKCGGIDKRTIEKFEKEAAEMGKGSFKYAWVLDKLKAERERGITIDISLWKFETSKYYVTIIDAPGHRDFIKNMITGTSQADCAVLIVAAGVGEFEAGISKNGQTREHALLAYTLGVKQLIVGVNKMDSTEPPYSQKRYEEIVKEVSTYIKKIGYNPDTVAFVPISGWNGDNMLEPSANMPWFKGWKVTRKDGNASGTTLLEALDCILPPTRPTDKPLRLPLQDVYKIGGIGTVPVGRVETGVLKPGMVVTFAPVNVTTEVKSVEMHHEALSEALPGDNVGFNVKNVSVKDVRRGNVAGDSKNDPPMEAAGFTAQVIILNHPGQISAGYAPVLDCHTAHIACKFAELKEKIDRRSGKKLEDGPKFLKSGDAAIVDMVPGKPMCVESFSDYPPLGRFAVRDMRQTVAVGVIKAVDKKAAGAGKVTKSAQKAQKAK
HaloTag-eEF1A, sequence (P68104 whole entry): as above
eEF1A, sequence (P68104 2-462): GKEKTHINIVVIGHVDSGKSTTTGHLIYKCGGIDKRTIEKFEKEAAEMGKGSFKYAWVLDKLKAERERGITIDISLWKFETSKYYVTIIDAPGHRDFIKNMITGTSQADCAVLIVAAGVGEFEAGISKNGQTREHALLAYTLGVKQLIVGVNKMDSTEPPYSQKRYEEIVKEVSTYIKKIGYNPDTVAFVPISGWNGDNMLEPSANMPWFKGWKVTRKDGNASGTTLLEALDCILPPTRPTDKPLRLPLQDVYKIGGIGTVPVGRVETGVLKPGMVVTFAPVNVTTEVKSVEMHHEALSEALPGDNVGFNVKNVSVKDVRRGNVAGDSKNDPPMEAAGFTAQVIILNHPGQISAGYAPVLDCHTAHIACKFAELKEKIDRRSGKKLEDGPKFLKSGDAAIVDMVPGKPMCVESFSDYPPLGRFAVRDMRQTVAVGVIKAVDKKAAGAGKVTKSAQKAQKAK

eEF1A (from UniProt P68104)
Kd [1]: 3.5 nM

HIV-1 RTp66-NanoLuc, E300R (enzyme)
percent reduction of the BRET ratio against WT RT (HaloTag-eEF1A [2]): 70%

HIV-1 RTp66-NanoLuc, D250R (enzyme)
percent reduction of the BRET ratio against WT RT (HaloTag-eEF1A [2]): 33%

HIV-1 RTp66-NanoLuc, E297R (enzyme)
percent reduction of the BRET ratio against WT RT (HaloTag-eEF1A [2]): 20%

HIV-1 RTp66-NanoLuc, E298R (enzyme)
percent reduction of the BRET ratio against WT RT (HaloTag-eEF1A [2]): 40%

6xHis-tagged WT RTp51/p66 heterodimer purified from E. coli (from UniProt P04585) E300R
Kd ([3]; parent: 3.4787 ± 0.079): 10.3 nM
koff ([3]; parent: 4.75E-4 ± 2.5E-5): 0.00139 s⁻¹
kon ([3]; parent: 136350 ± 4150): 135000 1/MS

6xHis-tagged E300R mutant RTp51/p66 heterodimer purified from E. coli (complex)
fold change of koff against the WT heterodimer [4]: 3 fold
fold weaker binding affinity (KD) than the WT heterodimer [4]: 3 fold

HIV-1 RTp66-NanoLuc, wild type L303A
percent of parent (HaloTag-eEF1A [5]): 43 % WT
